Measured values: the supplement of paper PMC10567573

B1: ANKRD40 (parent)
chain: VCCCELGVNPDQVEKIRKLPNTLL

Variants of: B1
Assay: protein stability index of a GFP-peptide fusion (GPS, HEK-293T) (PSI 1-6); higher = more stable
Settings: c terminus: a fixed tail appended
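Further: lentivirally expressed fusions sorted by FACS into six bins by GFP to DsRed ratio, PSI derived from sequencing read proportions per bin multiplied by bin number.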

Variant	protein stability index
N9C	1.66
N9M	2.23
N9W	2.8
N9K	2.33
N9P	2
N9A	1.47
N9V	1.75
N9Q	1.62
N9T	1.68
N9L	1.97
N9S	2.3
N9E	1.7
N9G	1.96
N9D	2.01
N9I	1.88
N9Y	1.78
N9R	1.92
N9H	1.83
L19K	2.48
L19M	2.1
L19H	1.79
L19W	2.73
L19N	2.23
L19I	2.25

Variant	protein stability index
L19E	2.73
L19V	2.62
L19Q	2.5
L19A	2.12
L19T	2.33
L19G	3.13
L19F	1.57
L19C	2.34
L19R	2.5
L19D	2.9
L19S	2.17
L19P	1.91
L19Y	1.76
R17Y	1.92
R17A	1.81
R17E	2.31
R17T	1.47
R17K	2.29
R17W	1.74
R17V	1.82
R17H	2.23
R17F	1.92
R17S	1.94
R17L	1.78

Variant	protein stability index
R17C	1.46
R17D	2.21
R17P	2.15
R17Q	1.62
R17I	3.09
R17N	1.67
R17M	1.9
R17G	1.45
K15Y	2.09
K15L	2.34
K15S	2.34
K15A	1.68
K15Q	2.23
K15D	2.17
K15E	2.81
K15F	2.06
K15C	1.33
K15W	2.53
K15P	2.07
K15N	1.94
K15I	1.39
K15R	2.21
K15V	2.12
K15H	1.36

Variant	protein stability index
K15G	1.41
K15M	1.76
K15T	1.66
K18G	1.53
K18L	1.72
K18T	1.89
K18Q	1.54
K18H	2.95
K18M	1.68
K18F	2.53
K18W	1.75
K18A	1.26
K18V	2.15
K18E	2.03
K18N	1.64
K18R	2.18
K18D	2.08
K18I	1.43
K18C	1.75
K18S	2.08
K18Y	1.31
K18P	1.59
C4Y	1.85
C4V	2.74

Variant	protein stability index
C4L	1.73
C4I	2.28
C4T	2.76
C4M	2.16
C4E	3
C4W	1.98
C4D	3.17
C4F	1.83
C4N	2.41
C4S	2.84
C4H	2.27
C4G	2.12
C4K	2.22
C4Q	2.72
C4R	2.43
C4A	1.87
E14D	1.66
E14W	2.21
E14H	2.08
E14V	1.45
E14S	1.45
E14C	1.71
E14N	1.91
E14Q	1.48

Variant	protein stability index
E14P	2.95
E14L	2.13
E14R	1.05
E14Y	2.09
E14T	1.68
E14A	2.3
E14M	1.53
E14G	1.89
E14K	1.48
I16P	2.89
I16A	3.14
I16C	2.22
I16R	2.12
I16K	2.53
I16Y	1.51
I16H	1.98
I16D	2.76
I16Q	2.32
I16L	1.56
I16G	2.01
I16M	1.67
I16N	3.14
I16E	3.09
I16V	2.38

Variant	protein stability index
I16S	2.08
I16W	2.13
I16F	1.69
I16T	2.56
E5H	2.82
E5M	1.32
E5A	1.84
E5N	1.97
E5R	1.47
E5Q	1.71
E5Y	2.68
E5K	2.22
E5D	1.89
E5L	2.28
E5V	1.18
E5P	2.17
E5G	1.33
E5S	2.81
E5F	3.32
E5C	1.1
P20R	1.91
P20M	1.57
P20D	1.48
P20K	1.95

Variant	protein stability index
P20I	1.38
P20H	2.55
P20Q	1.87
P20C	1.38
P20A	1.88
P20L	2.02
P20N	2.3
P20G	2.08
P20E	1.4
G7Q	2.02
G7L	2.3
G7C	2.6
G7E	2.13
G7K	2.42
G7A	2.02
G7Y	1.88
G7I	2.45
G7H	2.45
G7S	1.72
G7N	1.43
G7M	1.7
G7F	2.27
G7P	1.76
G7T	2.85

Variant	protein stability index
G7R	1.78
G7D	1.96
G7W	1.51
C3V	2.53
C3W	1.81
C3H	2.18
C3M	2.29
C3S	2.09
C3R	2.1
C3L	2.03
C3K	2.23
C3N	1.82
C3P	1.97
C3Q	1.96
C3A	2.42
C3Y	2.27
C3G	2.19
C3E	2.77
C3F	1.24
C3I	1.69
C3T	2.38
C3D	2.31
C2Y	2.6
C2P	3.22

Variant	protein stability index
C2N	2.7
C2T	2.72
C2W	1.45
C2S	2.76
C2Q	3.56
C2V	3.24
P10H	2
P10M	1.55
P10S	1.89
P10Q	2.02
P10E	2.11
P10A	2.14
P10C	1.94
P10T	1.98
P10G	2.17
P10L	2.17
P10V	2.01
P10K	2.02
P10D	2.2
P10Y	1.31
P10R	2.35
P10N	2
P10W	1.88
P10I	1.8

Variant	protein stability index
P10F	2.23
Q12L	2.52
Q12H	1.42
Q12S	2.3
Q12D	2.29
Q12F	2.14
Q12I	2.38
Q12P	1.86
Q12K	1.76
Q12V	2.24
Q12W	2.29
Q12R	1.67
Q12Y	1.21
Q12G	2.07
Q12M	2.03
Q12C	2.06
Q12N	1.75
Q12A	2.09
Q12E	2.16
Q12T	1.76
D11Q	1.63
D11P	1.24
D11R	2.63
D11C	2.01

Variant	protein stability index
D11T	1.69
D11N	1.42
D11Y	2.55
D11F	1.49
D11M	2.41
D11A	1.79
D11K	1.89
D11S	1.9
D11E	2.18
D11G	2.17
D11V	1.46
D11H	1.26
D11I	1.93
D11L	1.91
D11W	1.98
V8N	1.99
V8Y	1.77
V8P	1.79
V8I	1.79
V8W	1.58
V8T	1.62
V8Q	1.85
V8R	1.81
V8F	1.3

Variant	protein stability index
V8H	2.17
V8K	2.2
V8G	2.33
V8D	2.37
V8A	1.86
V8L	1.34
V8C	1.86
V8S	2.4
V8E	2.39
V13P	2.18
V13A	1.71
V13H	1.77
V13D	3.11
V13E	2.78
V13R	2.27
V13K	2.25
V13I	1.75
V13M	1.67
V13T	1.76
V13Q	2.42
V13C	1.91
V13Y	1.84
V13W	2.07
V13N	2.38

Variant	protein stability index
V13S	2.05
V13G	2.5
V13F	1.4
V13L	1.64
L6R	2.3
L6E	2.76
L6S	2.68
L6N	2.47
L6H	2.15
L6Y	1.87
L6A	2
L6K	3.1
L6V	2.2
L6W	1.66
L6I	1.8
L6F	1.4
L6T	2.13
L6D	3.28
L6G	2.87
L6C	2.06
L6M	2.3
L6Q	3.27
